Measured values from patent US20200017592A1.
Changes are numbered by the printed parent chain.

T1: human IL-36R (IL1RL2) on primary human cells (human) (UniProt Q9HB29)
T1 sequence (looked up): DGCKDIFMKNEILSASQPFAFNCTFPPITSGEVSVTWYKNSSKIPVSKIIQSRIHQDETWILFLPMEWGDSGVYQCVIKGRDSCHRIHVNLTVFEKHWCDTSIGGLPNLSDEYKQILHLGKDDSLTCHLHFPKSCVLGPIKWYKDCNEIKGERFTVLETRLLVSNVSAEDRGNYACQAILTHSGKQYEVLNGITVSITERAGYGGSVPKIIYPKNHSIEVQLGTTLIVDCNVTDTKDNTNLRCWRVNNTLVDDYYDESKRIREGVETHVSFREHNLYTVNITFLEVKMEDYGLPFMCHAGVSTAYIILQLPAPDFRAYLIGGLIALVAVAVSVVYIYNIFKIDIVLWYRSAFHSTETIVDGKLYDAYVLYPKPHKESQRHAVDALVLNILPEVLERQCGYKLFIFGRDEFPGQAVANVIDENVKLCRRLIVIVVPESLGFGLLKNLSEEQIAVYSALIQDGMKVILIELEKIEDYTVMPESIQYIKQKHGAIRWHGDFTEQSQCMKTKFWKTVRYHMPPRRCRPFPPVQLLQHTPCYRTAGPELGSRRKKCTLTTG

B1: human IL-36β (ligand, UniProt Q9NZH7 5-157, looked up)
chain: REAAPKSYAIRDSRQMVWVLSGNSLIAAPLSRSIKPVTLHLIACRDTEFSDKEKGNMVYLGIKGKDLCLFCAEIQGKPTLQLKLQGSQDNIGKDTCWKLVGIHTCINLDVRESCFMGTLDQWGIGVGRKKWKSSFQHHHLRKKDKDFSSMRTN
B2: rhIL-36β/IL-1F8 [aa5-157] (ligand, human, UniProt Q9NZH7 5-157, looked up)
chain: B1 chain
B3: H4H14757P (antibody, human IgG4 S228P, kappa, V domains shown)
VH: EVQLVESGGGLVQPGRSLRLSCTASGFTFDDYAMHWVRQAPGKGLEWVSGIRWNGGSIGYVDSVKGRFTISRDNAKKSLHLQMNSLKTEDTALYYCAKDIGDILTGFYGEYGMDVWGQGTTVTVSS
VL: DIQMTQSPSSLSASEGDRVTITCRASQSISSYLNWYQQKAGKAPNLLIYAASSLQSGVPSRFSGSGSGTEYTLTISSLQPEDFATYYCQQSYIIPYTFGQGTKLEIKR
B4: H4H14758P (antibody, human IgG4 S228P, kappa, V domains shown)
VH: EVQLVESGGGLVQPGRSLRLSCAASGFTFDDYAMHWVRQAPGKGLEWVSSVRWNGGIIGYADSVKGRFTISRDNAKNSLYLQMNSLRPEDTALYYCAKDIGDVLTGYYGEYGMDVWGQGTTVTVSS
VL: B3 VL with E15V, T22A, S30T, S31T, A40P, N45K, E70D, Y71F, I94S
B5: H4H14709P (antibody, human IgG4 S228P, kappa, V domains shown)
VH: EVQLVESGGGLVQPGGSLRLSCAASGFTFSDYAMSWVRQAPGKGLEWVSGISGNGGDTYYGDFVKGRFTISRDNSKNTLYLQMNSLRGEDTAAYFCVIDLDYWGQGTLVTVSS
VL: DIQMTQSPSTLSASEGDRVTITCRASQSISSWLAWYQQKPGKAPRLLIYKASILGDGVPSRFSGSGSGTEFTLTISSLQPDDFATYYCHQYNSYLWTFGQGTKVEIKR
B6: H4H14728P (antibody, human IgG4 S228P, kappa, V domains shown)
VH: QVQLQESGPGLVKPSQTLSLTCTVSGGSISSADYYWSWIRQHPGKGLEWIGSIYYTGSTYYNPSLKSRLTISIDTSENQFSLKLTSLTAADTAVYYCASEEANWGSHFDSWGQGTLVTVSS
VL: DIQMTQSPSSLSASVGDRVTITCRASQSIDNFLNWYQQKPGKAPKLLIYAASSLQSGVPSRFSGSGSGTDFTLTISSLQPEDFASYYCQHSHSAHPITFGQGTRLEIKR
B7: H4H14731P (antibody, human IgG4 S228P, kappa, V domains shown)
VH: QLQLQESGPGLVKPSETLSLTCTVSGGSISSSNYYWGWIRQPPGKRLEWIGSIYYSGSTYYNPSLKTRVTISVDTSKNQFSLKLTSVTAADTAVYYCAREEAAALTHFDFWGQGTLVTVSS
VL: B6 VL with D30S, F32Y, Y49F, S85T, A94S
B8: H4H14700P2 (antibody, human IgG4 S228P, kappa, V domains shown)
VH: EVQLVESGGGLVQPGRSLRLSCAASGFTFDDYAMHWVRQTPGKGLEWVSVISWNSDVIAYSDSVKGRFTISRDNAKNSLYLQMNSLGTEDTALYYCAKGHNWNFFDYWGQGTLVTVSS
VL: EIVLTQSPATLSLSPGERATLSCRASQSVSSYLAWYQQKPGQAPRLLIYNVANRATDIPARFSGSGSGTDFTLTISGLEPEDFAVYFCQQRSNWPLTFGGGTKVEIKR
B9: H4H14708P2 (antibody, human IgG4 S228P, kappa, V domains shown)
VH: B8 VH with G10D, T40A, G87R, A97T, N101K, N103S
VL: B8 VL with V29I, Y49F, G77S, F87Y

These binders were tested against full-length human IL-36R on cells (human) (UniProt Q9HB29) (assay: not given).

Row | EC50 (read off the curve) of hIL36β, NFκB-luciferase RLU, in the presence of 0.1 nM REGN6489 | EC50 (read off the curve) of hIL36β, NFκB-luciferase RLU, in the presence of 0.3 nM REGN6489 | EC50 (read off the curve) of hIL36β, NFκB-luciferase RLU, in the presence of 1 nM REGN6489 | EC50 (read off the curve) of hIL36β, NFκB-luciferase RLU, in the presence of 3 nM REGN6489 | EC50 (read off the curve) of hIL36β, NFκB-luciferase RLU, in the presence of 9 nM REGN6489 | EC50 (read off the curve) of hIL36β, NFκB-luciferase RLU, no antibody | Binder
1 | 0.005 nM | 0.01 nM | 0.03 nM | 0.1 nM | 0.3 nM | 0.002 nM | B1

Target: full-length human IL-36R on cells (human) (UniProt Q9HB29)
Assay: not given
Remark: another data set of the same source

Row | EC50 (read off the curve) of hIL36β, NFκB-luciferase RLU, in the presence of 0.3 nM REGN6490 | EC50 (read off the curve) of hIL36β, NFκB-luciferase RLU, in the presence of 1 nM REGN6490 | EC50 (read off the curve) of hIL36β, NFκB-luciferase RLU, in the presence of 3 nM REGN6490 | EC50 (read off the curve) of hIL36β, NFκB-luciferase RLU, in the presence of 9 nM REGN6490 | EC50 (read off the curve) of hIL36β, NFκB-luciferase RLU, no antibody | Binder
2 | 0.008 nM | 0.02 nM | 0.08 nM | 0.3 nM | 0.003 nM | B1

The binders below were run against Macaca fascicularis IL-36R on cells (Macaca fascicularis) (assay: cell-based or functional assay).
Macaca fascicularis IL-36R on cells (Macaca fascicularis), sequence (chain, as listed by the source): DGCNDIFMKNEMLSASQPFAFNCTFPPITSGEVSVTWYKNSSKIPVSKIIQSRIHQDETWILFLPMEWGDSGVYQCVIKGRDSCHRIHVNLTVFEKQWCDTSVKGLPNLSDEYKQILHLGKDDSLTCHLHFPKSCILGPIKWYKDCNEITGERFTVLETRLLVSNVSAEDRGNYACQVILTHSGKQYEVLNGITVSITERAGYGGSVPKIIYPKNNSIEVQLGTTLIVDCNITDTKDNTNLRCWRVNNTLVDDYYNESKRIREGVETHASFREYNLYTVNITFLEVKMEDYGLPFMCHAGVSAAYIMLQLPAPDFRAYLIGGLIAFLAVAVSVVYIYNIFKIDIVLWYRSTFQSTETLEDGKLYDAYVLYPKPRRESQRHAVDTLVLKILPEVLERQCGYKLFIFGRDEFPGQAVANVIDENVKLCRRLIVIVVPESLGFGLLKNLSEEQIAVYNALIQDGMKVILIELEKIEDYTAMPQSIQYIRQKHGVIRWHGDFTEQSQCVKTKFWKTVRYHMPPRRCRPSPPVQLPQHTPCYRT

Row | EC50, NFκB-luciferase, HEK293/NFκB-luc/MfIL-36R cells | Binder
3 | 0.27 nM | B1

These binders were tested against full-length human IL-36R on cells (human) (UniProt Q9HB29) (assay: cell-based or functional assay).

Row | EC50, NFκB-luciferase, HEK293/NFκB-luc/hIL-36R cells | Binder
4 | 0.014 nM | B1

These binders were tested against T1, human IL-36R (IL1RL2) on primary human cells (human) (assay: cell-based or functional assay).

Row | EC50[M], IL-8 production, Intestinal MyoFibroblasts (InMyoFib), hIL-36β | EC50[M], IL-8 production, Normal Epidermal Keratinocytes (NHEK), hIL-36β | EC50[M], IL-8 production, PB-derived CD14+ Monocytes, hIL-36β | Binder
5 | 1.18e-09 M | 1.18e-09 M | 2.63e-09 M | B2

Each binder was assayed against Macaca fascicularis IL-36R extracellular domain expressed with a C-terminal myc-myc-hexahistidine tag (mfIL-36R-MMH) (Macaca fascicularis) (assay: SPR Biacore 4000, mAb captured on anti-hFc, 37C).

Row | 100 nM mfIL-36R-MMH Bound (RU) | Kd | koff | kon | t1/2 | Binder
6 | 4 RU | – | – | – | – | B3
7 | -1 RU | – | – | – | – | B4
8 | 66 RU | 17.7 nM | 0.000871 s⁻¹ | 49100 M⁻¹ s⁻¹ | 13 min | B5
9 | 77 RU | 20.7 nM | 0.00134 s⁻¹ | 64800 M⁻¹ s⁻¹ | 9 min | B6
10 | 41 RU | 48.2 nM | 0.00322 s⁻¹ | 66800 M⁻¹ s⁻¹ | 4 min | B7
11 | 67 RU | 27.8 nM | 0.00198 s⁻¹ | 71400 M⁻¹ s⁻¹ | 6 min | B8
12 | 75 RU | 30.4 nM | 0.00181 s⁻¹ | 59600 M⁻¹ s⁻¹ | 6 min | B9

These binders were tested against Macaca fascicularis IL-36R extracellular domain expressed with a C-terminal myc-myc-hexahistidine tag (Macaca fascicularis) (assay: SPR (Biacore 4000), mAb captured on anti-human Fc, 25°C).

Row | 100 nM mfIL-36R-MMH Bound (RU) | Kd | koff | kon | t½ | Binder
13 | 1 RU | – | – | – | – | B3
14 | -1 RU | – | – | – | – | B4
15 | 34 RU | 14.3 nM | 0.000401 s⁻¹ | 28000 M⁻¹ s⁻¹ | 29 min | B5
16 | 51 RU | 7.87 nM | 0.000406 s⁻¹ | 51500 M⁻¹ s⁻¹ | 28 min | B6
17 | 33 RU | 15.9 nM | 0.000951 s⁻¹ | 59800 M⁻¹ s⁻¹ | 12 min | B7
18 | 48 RU | 10.6 nM | 0.000635 s⁻¹ | 60200 M⁻¹ s⁻¹ | 18 min | B8
19 | 51 RU | 12.9 nM | 0.000579 s⁻¹ | 45000 M⁻¹ s⁻¹ | 20 min | B9

Each binder was assayed against Macaca fascicularis IL-36R extracellular domain expressed with a C-terminal myc-myc-hexahistidine tag (Macaca fascicularis) (assay: SPR Biacore T200, mAb captured by anti-hFc, 25C, PBS-T pH 6.0).

Row | 100 nM mfIL-36R-MMH Bound (RU) | koff | t½ | Binder
20 | 1 RU | – | – | B3
21 | 1 RU | – | – | B4
22 | 48 RU | 0.00112 s⁻¹ | 10 min | B5
23 | 68 RU | 0.000616 s⁻¹ | 19 min | B6
24 | 23 RU | 0.00152 s⁻¹ | 8 min | B7
25 | 80 RU | 0.00171 s⁻¹ | 7 min | B8
26 | 47 RU | 0.0015 s⁻¹ | 8 min | B9

What follows are binders tested against Macaca fascicularis IL-36R extracellular domain expressed with a C-terminal myc-myc-hexahistidine tag (Macaca fascicularis) (assay: SPR Biacore T200, mAb captured by anti-hFc, 25C, PBS-T pH 7.4).

Row | 100 nM mfIL-36R-MMH Bound (RU) | koff | t½ | Binder
27 | 1 RU | – | – | B3
28 | 0 RU | – | – | B4
29 | 57 RU | 0.000519 s⁻¹ | 22 min | B5
30 | 74 RU | 0.000544 s⁻¹ | 21 min | B6
31 | 36 RU | 0.00137 s⁻¹ | 8 min | B7
32 | 91 RU | 0.000821 s⁻¹ | 14 min | B8
33 | 57 RU | 0.000752 s⁻¹ | 15 min | B9

Each binder was assayed against Macaca fascicularis IL-36R extracellular domain expressed with a C-terminal myc-myc-hexahistidine tag (Macaca fascicularis) (assay: SPR Biacore T200, mAb captured by anti-hFc, 37C, PBS-T pH 6.0).

Row | 100 nM mfIL-36R-MMH Bound (RU) | koff | t½ | Binder
34 | -1 RU | – | – | B3
35 | 1 RU | – | – | B4
36 | 80 RU | 0.00294 s⁻¹ | 4 min | B5
37 | 91 RU | 0.00191 s⁻¹ | 6 min | B6
38 | 40 RU | 0.00538 s⁻¹ | 2 min | B7
39 | 97 RU | 0.00333 s⁻¹ | 3 min | B8
40 | 58 RU | 0.0031 s⁻¹ | 4 min | B9

The binders below were run against Macaca fascicularis IL-36R extracellular domain expressed with a C-terminal myc-myc-hexahistidine tag (Macaca fascicularis) (assay: SPR Biacore T200, mAb captured by anti-hFc, 37C, PBS-T pH 7.4).

Row | 100 nM mfIL-36R-MMH Bound (RU) | koff | t½ | Binder
41 | 0 RU | – | – | B3
42 | 0 RU | – | – | B4
43 | 92 RU | 0.000987 s⁻¹ | 12 min | B5
44 | 98 RU | 0.00139 s⁻¹ | 8 min | B6
45 | 43 RU | 0.00361 s⁻¹ | 3 min | B7
46 | 108 RU | 0.0018 s⁻¹ | 6 min | B8
47 | 66 RU | 0.00169 s⁻¹ | 7 min | B9
